Data on four sequences can be found in US20190134153A1, “IMMUNOMODULATORY EFFECT OF INHALED KINASE INHIBITOR PEPTIDES IN LUNG” (MOERAE MATRIX, INC., priority 2017, published 2019).

What all share (assay): Kinase Profiling Assay
What all share (assay type): biochemical
Holding throughout (conditions): 100 μM

Assay [1] deals with T1, ASK1(h) (Homo sapiens, UniProt Q99683).
T1 sequence (Q99683 1-1374): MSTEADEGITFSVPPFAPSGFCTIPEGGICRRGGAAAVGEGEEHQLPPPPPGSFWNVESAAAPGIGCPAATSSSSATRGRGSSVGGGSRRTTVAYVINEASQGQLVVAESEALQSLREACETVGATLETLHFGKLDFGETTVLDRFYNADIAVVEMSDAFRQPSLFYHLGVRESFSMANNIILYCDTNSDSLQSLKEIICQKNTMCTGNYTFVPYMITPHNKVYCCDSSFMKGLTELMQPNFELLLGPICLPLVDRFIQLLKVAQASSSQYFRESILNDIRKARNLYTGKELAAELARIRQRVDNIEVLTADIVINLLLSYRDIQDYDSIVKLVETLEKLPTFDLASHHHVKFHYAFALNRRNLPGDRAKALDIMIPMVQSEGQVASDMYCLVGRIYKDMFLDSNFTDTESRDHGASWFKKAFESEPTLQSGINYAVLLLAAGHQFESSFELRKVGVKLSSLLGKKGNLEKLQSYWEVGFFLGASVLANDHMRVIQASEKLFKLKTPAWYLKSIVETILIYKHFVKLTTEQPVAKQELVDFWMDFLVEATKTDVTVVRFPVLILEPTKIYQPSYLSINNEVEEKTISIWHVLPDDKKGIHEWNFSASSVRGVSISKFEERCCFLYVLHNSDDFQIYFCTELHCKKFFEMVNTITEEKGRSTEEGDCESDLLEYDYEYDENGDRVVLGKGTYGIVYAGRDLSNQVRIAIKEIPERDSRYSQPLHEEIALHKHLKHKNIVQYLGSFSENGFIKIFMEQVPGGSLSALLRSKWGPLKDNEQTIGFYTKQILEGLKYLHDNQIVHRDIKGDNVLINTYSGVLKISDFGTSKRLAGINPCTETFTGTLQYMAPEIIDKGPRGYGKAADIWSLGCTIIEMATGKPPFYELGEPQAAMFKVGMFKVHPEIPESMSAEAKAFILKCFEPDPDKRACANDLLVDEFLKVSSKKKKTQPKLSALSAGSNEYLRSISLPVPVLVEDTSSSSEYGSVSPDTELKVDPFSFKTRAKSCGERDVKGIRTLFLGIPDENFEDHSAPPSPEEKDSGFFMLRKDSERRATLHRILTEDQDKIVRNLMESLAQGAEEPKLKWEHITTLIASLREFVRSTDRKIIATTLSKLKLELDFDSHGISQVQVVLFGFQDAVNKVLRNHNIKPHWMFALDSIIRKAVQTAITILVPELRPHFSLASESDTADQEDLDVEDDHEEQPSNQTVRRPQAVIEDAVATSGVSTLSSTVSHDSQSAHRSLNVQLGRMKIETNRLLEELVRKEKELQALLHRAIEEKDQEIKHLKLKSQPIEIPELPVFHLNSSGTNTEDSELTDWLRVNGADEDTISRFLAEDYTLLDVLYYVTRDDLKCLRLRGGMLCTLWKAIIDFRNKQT

The target of assay [2] is STK33(h) (Homo sapiens, UniProt Q9BYT3).
STK33(h), sequence (Q9BYT3 whole entry): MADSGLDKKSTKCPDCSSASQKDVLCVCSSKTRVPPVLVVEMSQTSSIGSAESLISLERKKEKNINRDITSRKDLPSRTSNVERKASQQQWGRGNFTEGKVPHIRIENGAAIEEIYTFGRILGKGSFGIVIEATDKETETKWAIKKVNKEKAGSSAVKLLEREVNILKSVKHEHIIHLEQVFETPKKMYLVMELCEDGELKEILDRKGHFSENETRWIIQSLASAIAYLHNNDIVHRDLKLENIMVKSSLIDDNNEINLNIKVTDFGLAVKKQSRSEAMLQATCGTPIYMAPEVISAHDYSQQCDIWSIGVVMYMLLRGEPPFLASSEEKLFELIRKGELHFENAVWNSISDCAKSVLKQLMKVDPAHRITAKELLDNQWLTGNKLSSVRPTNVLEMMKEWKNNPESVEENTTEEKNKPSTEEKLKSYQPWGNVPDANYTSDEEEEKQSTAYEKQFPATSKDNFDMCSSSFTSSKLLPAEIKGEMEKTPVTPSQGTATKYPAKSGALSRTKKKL
The target of assay [3] is T2, CHK1(h) (Homo sapiens, UniProt O14757).
T2 sequence (O14757 1-476): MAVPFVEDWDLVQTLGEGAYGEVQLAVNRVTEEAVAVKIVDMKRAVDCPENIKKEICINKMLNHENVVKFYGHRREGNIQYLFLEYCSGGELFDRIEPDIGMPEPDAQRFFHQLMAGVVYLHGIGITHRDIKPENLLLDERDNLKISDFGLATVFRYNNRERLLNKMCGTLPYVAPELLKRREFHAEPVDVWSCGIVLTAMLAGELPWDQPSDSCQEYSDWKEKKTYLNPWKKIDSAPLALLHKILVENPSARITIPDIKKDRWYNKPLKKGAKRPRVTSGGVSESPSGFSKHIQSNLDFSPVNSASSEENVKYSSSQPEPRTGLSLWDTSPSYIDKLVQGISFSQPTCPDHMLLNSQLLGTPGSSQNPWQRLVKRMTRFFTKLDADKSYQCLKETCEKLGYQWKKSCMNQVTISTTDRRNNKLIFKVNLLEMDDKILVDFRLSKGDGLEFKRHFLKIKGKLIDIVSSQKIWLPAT

Assay [4] concerns the target Ret (V804L)(h) (Homo sapiens, UniProt P07949, V804L).
For assay [5], the target named is T3, ULK2(h) (Homo sapiens, UniProt Q8IYT8).
T3 sequence (Q8IYT8 1-1036): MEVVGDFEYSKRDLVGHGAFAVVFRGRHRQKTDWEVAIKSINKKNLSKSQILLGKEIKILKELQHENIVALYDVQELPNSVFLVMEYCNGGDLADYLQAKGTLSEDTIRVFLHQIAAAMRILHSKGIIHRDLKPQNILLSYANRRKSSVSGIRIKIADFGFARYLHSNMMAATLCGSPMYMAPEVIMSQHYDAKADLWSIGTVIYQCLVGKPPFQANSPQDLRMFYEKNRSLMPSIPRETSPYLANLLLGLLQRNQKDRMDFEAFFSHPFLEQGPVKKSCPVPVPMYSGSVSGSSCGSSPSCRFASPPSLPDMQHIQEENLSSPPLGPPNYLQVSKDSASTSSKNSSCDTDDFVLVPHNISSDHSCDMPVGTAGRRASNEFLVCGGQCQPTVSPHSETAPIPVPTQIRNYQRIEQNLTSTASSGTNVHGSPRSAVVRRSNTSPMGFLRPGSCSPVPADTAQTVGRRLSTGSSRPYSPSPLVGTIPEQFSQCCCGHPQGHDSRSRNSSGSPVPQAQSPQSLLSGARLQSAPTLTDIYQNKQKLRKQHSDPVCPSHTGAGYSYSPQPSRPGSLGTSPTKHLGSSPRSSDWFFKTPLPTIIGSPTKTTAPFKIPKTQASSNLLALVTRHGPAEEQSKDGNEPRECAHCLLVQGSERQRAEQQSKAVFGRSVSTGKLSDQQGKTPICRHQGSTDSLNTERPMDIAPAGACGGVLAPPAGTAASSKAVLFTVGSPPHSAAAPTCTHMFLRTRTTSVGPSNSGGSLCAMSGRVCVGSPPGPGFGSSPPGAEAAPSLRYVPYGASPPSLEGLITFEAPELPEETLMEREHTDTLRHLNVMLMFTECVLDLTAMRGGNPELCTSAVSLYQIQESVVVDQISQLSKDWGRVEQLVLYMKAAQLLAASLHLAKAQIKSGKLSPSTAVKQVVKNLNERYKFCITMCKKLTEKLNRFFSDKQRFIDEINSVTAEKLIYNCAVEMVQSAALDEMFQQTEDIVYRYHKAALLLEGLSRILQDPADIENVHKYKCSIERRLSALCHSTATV

In the case of HRRIKAWLKKIKALARQLGVAA [MMI-0500], the “% activity” value in assay [1] is on record as −4%; in assay [2], 16%; in assay [3] it was 65%; in assay [4] it was 20%; in assay [5], 124%.
For the sequence YARAAARQARAKALNRQLGVA [MMI-0200], the “% activity” value in assay [1] is recorded as 101%; in assay [2] it was 98%; in assay [4], 100%; in assay [5], 132%.
Turning to KAFAKLAARLYRKALARQLGVAA [MMI-0400], the “% activity” value in assay [1] is on record as 69%; in assay [2], 52%; in assay [3], 87%; in assay [4], 73%; in assay [5] it was 131%.
As for FAKLAARLYRKALARQLGVAA [MMI-0300], the “% activity” value was determined as 80% in assay [1]; 45% in assay [2]; 91% in assay [3]; 79% in assay [4]; 122% in assay [5].
